The results in this text go back to publication PMC5033356, “Crystal Structure of the Escherichia coli Fic Toxin-Like Protein in Complex with Its Cognate Antitoxin” (PLoS ONE, 2016).

The target in assay [1] is T1, EcFicT_(G55R) (Escherichia coli, UniProt P20605 3-200, G55R).
T1 construct: EcFicT of Escherichia coli, UniProt P20605, with G55R (the change encoded by the temperature-sensitive fic-1 allele), introduced by a single base-pair mutation; model of PDB 5JFF covers residues 10-15, 17-198; G55R is the change of the fic-1 mutant allele described by Utsumi et al; here it was introduced into the plasmid by mutagenesis; also called G55R point mutant of EcFicT; product of the …
T1 sequence: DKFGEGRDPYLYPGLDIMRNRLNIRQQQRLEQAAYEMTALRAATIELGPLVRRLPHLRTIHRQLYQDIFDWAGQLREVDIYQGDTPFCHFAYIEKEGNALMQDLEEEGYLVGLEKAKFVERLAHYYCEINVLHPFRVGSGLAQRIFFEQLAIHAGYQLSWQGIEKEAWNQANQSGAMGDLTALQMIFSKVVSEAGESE
The experiment in a line: SEC-MALS. Conditions: both partners purified. For orientation: Size exclusion chromatography separates by hydrodynamic size, large species first.

For assay [2], the target named is T2, EcFicT (E. coli Fic toxin-like protein, wild type) (Escherichia coli, UniProt P20605 3-200).
T2 construct: EcFicT, product of the fic gene (renamed ecficT) of Escherichia coli; UniProt P20605; model of PDB 5JFZ covers residues 10-81, 88-195; also called EcFicTwt; Fic protein from E. coli
T2 sequence: T1 sequence with R53G
The experiment in a line: SEC-MALS. The settings on record: both partners purified.

Numbering of substitutions follows the chain as printed. Names and notes keep the numbering of the source.

B1: EcFicA (cognate antitoxin of EcFicT, wild type) (natural protein, Escherichia coli)
chain: KKLTDKQKSRLWELQRNRNFQASRRLEGVEMPLVTLTAAEALARLEELRSHYER
notes: EcFicA, product of the yhfG gene (renamed ecficA) of Escherichia coli; UniProt P0ADX5; model of PDB 5JFF covers residues 3-53; also called EcFicAwt; YhfG
On to B1, for which the “stoichiometry N” value in assay [1] and in assay [2] was 1 throughout.

B2: EcFicA_(E28G) (natural protein, Escherichia coli)
chain: B1 chain with E27G
notes: model of PDB 5JFZ covers residues 5-53; also called antitoxin mutant EcFicA_(E28G)
Take B2: the “stoichiometry N” value in assay [1] and in assay [2] was 1 throughout.

As a reminder, the stoichiometry N is a count of units in the complex or per binding partner.
